# Laboratory results as given in the Human Domainome abundance scans (Beltran et al. 2025).
# ± gives the uncertainty stated by the source.
# Assay: abundance fitness (aPCA) (normalised: wild type 0, dead -1); higher = more abundant; growth selection in yeast, the domain comes from the species named
# Conditions: Saccharomyces cerevisiae (strain ATCC 204508 / S288c)
row,Substance,abundance fitness
1,"E3 ubiquitin-protein ligase RSP5 A347C, P39940",0.08 ± 0.095
2,"E3 ubiquitin-protein ligase RSP5 A347D, P39940",-0.025 ± 0.084
3,"E3 ubiquitin-protein ligase RSP5 A347E, P39940",-0.034 ± 0.056
4,"E3 ubiquitin-protein ligase RSP5 A347F, P39940",-0.067 ± 0.19
5,"E3 ubiquitin-protein ligase RSP5 A347G, P39940",-0.043 ± 0.047
6,"E3 ubiquitin-protein ligase RSP5 A347H, P39940",-0.048 ± 0.056
7,"E3 ubiquitin-protein ligase RSP5 A347K, P39940",0.008 ± 0.053
8,"E3 ubiquitin-protein ligase RSP5 A347L, P39940",-0.044 ± 0.045
9,"E3 ubiquitin-protein ligase RSP5 A347M, P39940",0.089 ± 0.064
10,"E3 ubiquitin-protein ligase RSP5 A347N, P39940",-0.034 ± 0.059
11,"E3 ubiquitin-protein ligase RSP5 A347P, P39940",-0.115 ± 0.064
12,"E3 ubiquitin-protein ligase RSP5 A347Q, P39940",-0.063 ± 0.055
13,"E3 ubiquitin-protein ligase RSP5 A347R, P39940",-0.031 ± 0.045
14,"E3 ubiquitin-protein ligase RSP5 A347V, P39940",-0.044 ± 0.046
15,"E3 ubiquitin-protein ligase RSP5 A347W, P39940",-0.316 ± 0.047
16,"E3 ubiquitin-protein ligase RSP5 A347Y, P39940",-0.128 ± 0.063
17,"E3 ubiquitin-protein ligase RSP5 D351A, P39940",-0.731 ± 0.053
18,"E3 ubiquitin-protein ligase RSP5 D351C, P39940",-0.256 ± 0.067
19,"E3 ubiquitin-protein ligase RSP5 D351E, P39940",-0.488 ± 0.052
20,"E3 ubiquitin-protein ligase RSP5 D351G, P39940",-0.89 ± 0.046
21,"E3 ubiquitin-protein ligase RSP5 D351H, P39940",-0.574 ± 0.21
22,"E3 ubiquitin-protein ligase RSP5 D351K, P39940",-0.748 ± 0.084
23,"E3 ubiquitin-protein ligase RSP5 D351L, P39940",-1.08 ± 0.059
24,"E3 ubiquitin-protein ligase RSP5 D351M, P39940",-0.772 ± 0.13
25,"E3 ubiquitin-protein ligase RSP5 D351P, P39940",-1.24 ± 0.15
26,"E3 ubiquitin-protein ligase RSP5 D351Q, P39940",-0.612 ± 0.21

row,Substance,abundance fitness
1,"E3 ubiquitin-protein ligase RSP5 D351R, P39940",-0.864 ± 0.05
2,"E3 ubiquitin-protein ligase RSP5 D351S, P39940",-0.584 ± 0.057
3,"E3 ubiquitin-protein ligase RSP5 D351T, P39940",-0.966 ± 0.073
4,"E3 ubiquitin-protein ligase RSP5 D351V, P39940",-1.24 ± 0.068
5,"E3 ubiquitin-protein ligase RSP5 D351W, P39940",-1.28 ± 0.097
6,"E3 ubiquitin-protein ligase RSP5 D361A, P39940",-0.269 ± 0.053
7,"E3 ubiquitin-protein ligase RSP5 D361C, P39940",-0.183 ± 0.1
8,"E3 ubiquitin-protein ligase RSP5 D361E, P39940",-0.266 ± 0.053
9,"E3 ubiquitin-protein ligase RSP5 D361G, P39940",-0.534 ± 0.047
10,"E3 ubiquitin-protein ligase RSP5 D361I, P39940",-0.632 ± 0.15
11,"E3 ubiquitin-protein ligase RSP5 D361K, P39940",-0.25 ± 0.06
12,"E3 ubiquitin-protein ligase RSP5 D361L, P39940",-0.641 ± 0.056
13,"E3 ubiquitin-protein ligase RSP5 D361N, P39940",-0.304 ± 0.085
14,"E3 ubiquitin-protein ligase RSP5 D361P, P39940",-0.516 ± 0.12
15,"E3 ubiquitin-protein ligase RSP5 D361Q, P39940",-0.305 ± 0.086
16,"E3 ubiquitin-protein ligase RSP5 D361S, P39940",-0.409 ± 0.054
17,"E3 ubiquitin-protein ligase RSP5 D361T, P39940",-0.562 ± 0.065
18,"E3 ubiquitin-protein ligase RSP5 D361V, P39940",-0.607 ± 0.043
19,"E3 ubiquitin-protein ligase RSP5 D361Y, P39940",-0.594 ± 0.062
20,"E3 ubiquitin-protein ligase RSP5 E332A, P39940",0.03 ± 0.051
21,"E3 ubiquitin-protein ligase RSP5 E332C, P39940",-0.116 ± 0.08
22,"E3 ubiquitin-protein ligase RSP5 E332D, P39940",0.038 ± 0.074
23,"E3 ubiquitin-protein ligase RSP5 E332F, P39940",-0.165 ± 0.12
24,"E3 ubiquitin-protein ligase RSP5 E332G, P39940",-0.066 ± 0.046
25,"E3 ubiquitin-protein ligase RSP5 E332H, P39940",-0.551 ± 0.13
26,"E3 ubiquitin-protein ligase RSP5 E332I, P39940",-0.225 ± 0.087

row,Substance,abundance fitness
1,"E3 ubiquitin-protein ligase RSP5 E332K, P39940",-0.046 ± 0.064
2,"E3 ubiquitin-protein ligase RSP5 E332L, P39940",-0.459 ± 0.051
3,"E3 ubiquitin-protein ligase RSP5 E332M, P39940",-0.093 ± 0.069
4,"E3 ubiquitin-protein ligase RSP5 E332P, P39940",-0.128 ± 0.057
5,"E3 ubiquitin-protein ligase RSP5 E332Q, P39940",-0.359 ± 0.061
6,"E3 ubiquitin-protein ligase RSP5 E332R, P39940",-0.36 ± 0.043
7,"E3 ubiquitin-protein ligase RSP5 E332S, P39940",-0.179 ± 0.053
8,"E3 ubiquitin-protein ligase RSP5 E332T, P39940",-0.14 ± 0.069
9,"E3 ubiquitin-protein ligase RSP5 E332V, P39940",-0.07 ± 0.047
10,"E3 ubiquitin-protein ligase RSP5 E332W, P39940",-0.493 ± 0.046
11,"E3 ubiquitin-protein ligase RSP5 E332Y, P39940",-0.184 ± 0.066
12,"E3 ubiquitin-protein ligase RSP5 E338A, P39940",-0.333 ± 0.056
13,"E3 ubiquitin-protein ligase RSP5 E338C, P39940",-0.476 ± 0.16
14,"E3 ubiquitin-protein ligase RSP5 E338D, P39940",-0.022 ± 0.13
15,"E3 ubiquitin-protein ligase RSP5 E338F, P39940",-0.73 ± 0.14
16,"E3 ubiquitin-protein ligase RSP5 E338G, P39940",-0.454 ± 0.045
17,"E3 ubiquitin-protein ligase RSP5 E338H, P39940",-0.349 ± 0.1
18,"E3 ubiquitin-protein ligase RSP5 E338K, P39940",-0.463 ± 0.049
19,"E3 ubiquitin-protein ligase RSP5 E338L, P39940",-0.499 ± 0.044
20,"E3 ubiquitin-protein ligase RSP5 E338M, P39940",-0.402 ± 0.047
21,"E3 ubiquitin-protein ligase RSP5 E338N, P39940",-0.501 ± 0.09
22,"E3 ubiquitin-protein ligase RSP5 E338P, P39940",-0.874 ± 0.083
23,"E3 ubiquitin-protein ligase RSP5 E338Q, P39940",-0.027 ± 0.065
24,"E3 ubiquitin-protein ligase RSP5 E338R, P39940",-0.626 ± 0.045
25,"E3 ubiquitin-protein ligase RSP5 E338S, P39940",-0.19 ± 0.046
26,"E3 ubiquitin-protein ligase RSP5 E338V, P39940",-0.278 ± 0.053

row,Substance,abundance fitness
1,"E3 ubiquitin-protein ligase RSP5 E338W, P39940",-0.978 ± 0.11
2,"E3 ubiquitin-protein ligase RSP5 E338Y, P39940",-0.632 ± 0.075
3,"E3 ubiquitin-protein ligase RSP5 E344A, P39940",-0.144 ± 0.045
4,"E3 ubiquitin-protein ligase RSP5 E344C, P39940",-0.264 ± 0.097
5,"E3 ubiquitin-protein ligase RSP5 E344D, P39940",0.149 ± 0.087
6,"E3 ubiquitin-protein ligase RSP5 E344F, P39940",-0.309 ± 0.072
7,"E3 ubiquitin-protein ligase RSP5 E344G, P39940",-0.038 ± 0.045
8,"E3 ubiquitin-protein ligase RSP5 E344H, P39940",0.116 ± 0.16
9,"E3 ubiquitin-protein ligase RSP5 E344I, P39940",-0.215 ± 0.091
10,"E3 ubiquitin-protein ligase RSP5 E344K, P39940",-0.222 ± 0.063
11,"E3 ubiquitin-protein ligase RSP5 E344L, P39940",-0.31 ± 0.047
12,"E3 ubiquitin-protein ligase RSP5 E344M, P39940",-0.103 ± 0.06
13,"E3 ubiquitin-protein ligase RSP5 E344N, P39940",-0.032 ± 0.081
14,"E3 ubiquitin-protein ligase RSP5 E344P, P39940",-0.428 ± 0.071
15,"E3 ubiquitin-protein ligase RSP5 E344Q, P39940",-0.081 ± 0.053
16,"E3 ubiquitin-protein ligase RSP5 E344R, P39940",-0.256 ± 0.047
17,"E3 ubiquitin-protein ligase RSP5 E344S, P39940",-0.168 ± 0.048
18,"E3 ubiquitin-protein ligase RSP5 E344T, P39940",-0.088 ± 0.051
19,"E3 ubiquitin-protein ligase RSP5 E344V, P39940",-0.308 ± 0.054
20,"E3 ubiquitin-protein ligase RSP5 E344W, P39940",-0.338 ± 0.046
21,"E3 ubiquitin-protein ligase RSP5 F341A, P39940",-0.072 ± 0.049
22,"E3 ubiquitin-protein ligase RSP5 F341C, P39940",0.051 ± 0.069
23,"E3 ubiquitin-protein ligase RSP5 F341E, P39940",0.068 ± 0.064
24,"E3 ubiquitin-protein ligase RSP5 F341G, P39940",-0.284 ± 0.044
25,"E3 ubiquitin-protein ligase RSP5 F341I, P39940",-0.027 ± 0.092
